The results in this text go back to patent US7943358B2, “Polymerase enhancing factor (PEF) extracts, PEF protein complexes, isolated PEF protein, and methods for purifying and identifying” (Agilent Technologies, Inc., priority 1997, dated 2011).

Type in all cases: biochemical
Data set [1] concerns the target T1, cloned Pfu DNA polymerase (Pyrococcus furiosus, UniProt P61875).
T1 sequence (P61875 1-775): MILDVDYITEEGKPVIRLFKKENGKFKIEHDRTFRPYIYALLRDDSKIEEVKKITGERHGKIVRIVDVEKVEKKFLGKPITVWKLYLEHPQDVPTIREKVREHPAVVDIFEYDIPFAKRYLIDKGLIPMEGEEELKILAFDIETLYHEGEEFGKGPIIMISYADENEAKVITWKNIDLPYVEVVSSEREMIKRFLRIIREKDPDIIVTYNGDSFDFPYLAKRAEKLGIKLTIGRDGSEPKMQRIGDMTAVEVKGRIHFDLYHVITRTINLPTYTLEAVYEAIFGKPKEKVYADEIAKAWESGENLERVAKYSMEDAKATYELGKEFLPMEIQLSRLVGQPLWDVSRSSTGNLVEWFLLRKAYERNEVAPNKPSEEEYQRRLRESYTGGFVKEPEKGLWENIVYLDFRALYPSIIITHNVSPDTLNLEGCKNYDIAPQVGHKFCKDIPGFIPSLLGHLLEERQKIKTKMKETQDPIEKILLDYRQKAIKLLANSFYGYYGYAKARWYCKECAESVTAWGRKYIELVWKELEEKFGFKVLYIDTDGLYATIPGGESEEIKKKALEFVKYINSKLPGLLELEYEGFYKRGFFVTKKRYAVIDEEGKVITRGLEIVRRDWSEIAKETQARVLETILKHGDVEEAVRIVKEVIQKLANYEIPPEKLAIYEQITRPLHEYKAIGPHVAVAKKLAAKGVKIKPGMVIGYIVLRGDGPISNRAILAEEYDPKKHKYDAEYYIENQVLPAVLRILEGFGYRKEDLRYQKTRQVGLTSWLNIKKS
Description: 6.2 kb primer-template PCR enhancing assay. As to conditions: protein concentrations comparable to or greater than gel-purified PEFs. The method, then: One embodiment of an assay used to screen for PEFs, in this case from Pyrococcus furiosus, involved amplifying a 6.2 kb target from transgenic mouse DNA (6.2 kb primer-template assay). A master PCR cocktail was prepared consisting of: 200 μM each dNTP, 2 μg/ml primer F432-21 (5′-CTA-TTG-AGT-ACG-AAC-GCC-ATC) (SEQ ID NO.: 62), 2 μg/ml primer R6656-20 (GTC-ACG-CTT-GCT-CCA-CTC-CG) (SEQ ID NO: 63), 2.5 μg/ml λAA742 DNA (transgenic mouse DNA having 40 copies of a lambda phage DNA shuttle vector), 1× cloned Pfu DNA polymerase PCR buffer (10 mM KCl, 10 mM (NH4)2SO4, 20 mM Tris-HCl (pH 8.8), 2 mM MgSO4, 0.1% (v/v) Triton X-100, and 100 μg/ml BSA), and 25 U/ml cloned Pfu DNA polymerase. Samples were diluted in 1× cloned Pfu DNA polymerase PCR buffer, and 1 μl of each diluted sample was added to 24 μl of the PCR cocktail. PCR amplifications were conducted on the RoboCycler 96 Temperature Cycler (Stratagene), using the following conditions: 96° C. for 45 s (1 cycle)/96° C. for 45 s; 60° C. for 45 s; 72° C. for 14 min. (35 cycles)/72° C. for 10 min. (1 cycle). PCR products (10 μl/lane) are run out on 1% agarose gels and PCR product bands visualized by ethidium bromide staining. […] When PCR enhancement is due to the presence of PEFs, rather than contaminating endogenous DNA polymerase activity, amplifications performed in the absence of […] yield no PCR product. Moreover, PCR amplifications performed in the absence of exogenous DNA template should yield no PCR product when the PEF sample lacks contaminating target DNA.

Data set [2] in a line: PCR cycling of dCTP in the presence of PEF or Pfu DNA polymerase, HPLC. As to conditions: 10 mM dCTP, 1.25 U Pfu/μl.
Data set [3] has as its system gapped-duplex calf thymus DNA. The experiment in a line: DNA polymerase activity, gapped-duplex calf thymus DNA assay. As to conditions: 30 minutes at 72° C. The method, then:
Initially and as a control to confirm the activity of the DNA polymerase used, gapped-duplex calf thymus DNA (Pharmacia) assays were performed. The polymerase cocktail contained 50 mM Tris-HCl, pH 8.0, 5 mM MgCl2, 1 mM DTT, 50 μg/m BSA, 4% glycerol, 200 μM each dNTP, [^3H]TTP (0.5 mCi·μmole final concentration), and 250 μg/ml of activated calf thymus DNA (Pharmacia). Samples containing Pfu DNA polymerase or P. furiosus PEF were serially diluted in Pfu DNA polymerase storage buffer (50 mM Tris-HCl, pH 8.2, 0.1% NP-40, 0.1% Tween-20, 0.1 mM EDTA, 1 mM DTT, 50% glycerol) and then 1 μl of each dilution was added to 10 μl aliquots of polymerase cocktail. Polymerization reactions were conducted in triplicate for 30 minutes at 72° C. The extension reactions were quenched on ice, and then 5 μl aliquots were spotted immediately onto DE81 filters (Whatman). Unincorporated [^3H]TTP was removed by 6 washes with 2×SCC (0.3M NaCl, 30 mM sodium citrate, pH 7.0), followed by one wash with 100% ethanol. Incorporated radioactivity was measured by scintillation counting. The assay was calibrated by counting a known amount of [^3H]TTP on DE-81 filters, omitting the wash steps. One unit of polymerase activity is defined as the amount of enzyme which catalyzes the incorporation of 10 nmoles of total dNTP into polymeric form (binds to DE-81 paper) in 30 minutes at 72° C. […]

B1: Pfu DNA polymerase: DNA polymerase of Pyrococcus furiosus (protein, UniProt P61875 1-775, looked up)
DNA polymerase: T1 sequence (P61875 1-775)
With B1, in data set [1], the “PCR enhancing activity (in words)” value is reported as “lacks PCR enhancing activity”. Also, the “change in dCDP, dCMP or dUTP produced when dCTP cycled with Pfu DNA polymerase” value in data set [2] is listed as “no difference”. Further, in data set [3], the “specific activity (DNA polymerase)” value is reported as 2-4×10^4 u/mg.
